Experimental data taken from patent US12215162B2, “BAFF-R targeted chimeric antigen receptor-modified T-cells and uses thereof” (CITY OF HOPE, priority 2016, dated 2025).

What was measured:
[1] = tested on: Z-138; assay: In vivo ibrutinib-resistant Z-138 tumor model, antibody treatment; parameters: species or system NSG mice; conditions: vs PBS or NK only
Text: (§1) FIGS. 6A and 6B are images and FIG. 6C are graphs showing chimeric antibodies targeting human BAFF-R elicited in vivo therapeutic effects against drug resistant B-cell tumors. Bioluminescence images of mice challenged with luciferase-expressing tumors JeKo-1-CD20-KO cells (FIG. 6A) or ibrutinib-resistant Z-138 cells (FIG. 6B) followed by antibody treatments as in FIG. 4. Control group mice received PBS, NK cells alone, or rituximab on the same schedule. […] Tumor free rate and survival differences between experimental and all control groups were analyzed by log-rank test (** P<0.001). Data are representative of three independent experiments.
(§2) In vivo studies. For tumor models, stable, luciferase-expressing tumors lines were established for bioluminescent imaging in mouse models. Briefly, a luciferase gene was introduced into tumor lines by a lentivirus gene delivery system (pLenti7.3/V5-DEST Gateway Vector Kit, Life Technologies, Carlsbad, CA). The minimum lethal dose per mouse was determined for each tumor cell line by dose titration. Tumor cells were injected intravenously (IV) and mice were monitored by in vivo bioluminescence imaging for minimum tumor dose to ensure engraftment. Minimum lethal tumor doses were 1×10^6 JeKo-1, 5×10^5 RS4; 11, 5×10^5 JeKo-1-CD20-KO, or 2.5×10^4 Z-138 cells. […]

[2] = tested on: JeKo-1-CD20-KO; assay: In vivo JeKo-1-CD20-KO tumor model, antibody treatment; parameters: species or system NSG mice
Text: as §1, §2

[3] = tested on: RS4; 11 (acute lymphoblastic leukemia, ALL); assay: In vivo RS4;11 ALL tumor model, antibody treatment; parameters: species or system NSG mice; conditions: 200 μg antibody + NK-92-176V cells + IL-2 IV
Text: (§3) FIG. 4A is a schematic showing treatment schedule following Day 0 tumor challenge with minimum lethal dose of tumors. Treatments were given by IV tail vein injections. FIGS. 4B and 4C are images showing chimeric antibodies targeting human BAFF-R elicited in vivo therapeutic effects against B-cell tumors. Bioluminescence images of mice challenged with luciferase-expressing tumors: JeKo-1 (MCL) (FIG. 4B) or RS4; 11 (ALL) (FIG. 4C). Experimental groups received treatment of chimeric BAFF-R mAbs (C55 or C90, as indicated). Control group mice received PBS, NK cells alone, or rituximab on the same schedule. Data are representative of three independent experiments.
as §2

[4] = tested on: JeKo-1-CD20-KO clone 25; assay: ADCC against rituximab-resistant JeKo-1-CD20-KO; format: cell-based, human; conditions: NK cells E:T 20:1
Protocol: FIGS. 5A, 5B and 5C are images or graphs showing chimeric BAFF-R antibodies induce ADCC on drug resistant lymphoma models in vitro. FIG. 5A is a scatterplot of FACS analysis showing CD20 binding on JeKo-1 cells following CRISPR/HDR knock-out of CD20 gene. CD20 expression on selected CD20−/−clone #25 compared to WT JeKo-1. ADCC effects measured by chromium-51 release after incubation with C55, C90, or rituximab and effectors NK cells (E:T=20:1). Percentage of cell specific lysis of target cells: rituximab-resistant JeKo-1-CD20-KO (FIG. 5B) and ibrutinib-resistant Z-138 and SP49-IR (FIG. 5C). All data are representative of two or more identical experiments. Data are shown as the mean±s.d. of triplicate samples. *P<0.05 compared with NK cells by two-tailed Student's t-test.
(§4) Cytotoxicity assays. Target cells (L cells, human tumor lines, primary patient samples) were labeled with chromium-51 (51Cr, Perkin Elmer, Waltham, MA) for a 51Cr release assay. Briefly, antibodies and effectors (NK cells or complement serum standard [Sigma Aldrich, St. Louis, MO]), were added to labeled target cells and incubated up to 18 hours. NK cells were enriched from PBMC (NK cell enrichment kit, Stemcell Technologies, Vancouver, Canada). 51Cr released into supernatant was detected with a Wizard Automatic Gamma Counter (Perkin Elmer).
Generation of JeKo-1-CD20-KO. […]

[5] = tested on: primary CLL and MCL samples; assay: ADCC against primary samples from rituximab-treated patients; format: cell-based, human; conditions: CLL (n=3) and MCL (n=2), E:T 20:1
Protocol: FIGS. 3A and 3B are graphs showing BAFF-R monoclonal antibodies induce in vitro Antibody Dependent Cell-Mediated Cytotoxicity (ADCC) against primary B-cell tumors. Antibody-dependent cell-mediated cytotoxicity (ADCC) effects were measured by chromium-51 release after incubation with C55, C90, or rituximab and effectors (NK cells). […] Data are shown as the mean±s.d. of triplicate samples. *P<0.05 compared with NK cells by two-tailed Student's t-test.
as §4

[6] = tested on: JeKo-1, SU-DHL-6, Raji, and RL; assay: Flow cytometry binding to non-Hodgkin lymphoma lines; parameters: species or system human; conditions: Alexa Fluor 488 conjugated chimeric antibody
Text: FIGS. 1A, 1B, 1C, 1D and 1E are FACS images showing generation and specificity of novel monoclonal antibodies against human BAFF-R. FIG. 1A is a FACS analysis of cell surface expression of hBAFF-R-GFP fusion protein in mouse fibroblast L cells. Gated on GFP-positive cells, engineered L cell clone (right plot) is compared to parental L cells (left plot). Clone D2C was selected for further studies. FIGS. 1B, 1C, 1D and 1E are FACS traces of fluorescent counts of anti-BAFF-R antibodies binding cell lines and patient samples. […] BAFF-R-negative 293T embryonic kidney cell line was used as a control. […] Parental L cells and secondary anti-hIgG-APC antibodies only were used as controls. […] The data are representative of three independent experiments. For all of FIGS. 1B-1E, the traces from top to bottom as shown in the figures correlate with the variables (e.g., antibody type or cell type) used from top to bottom shown below or next to the figures.
FIG. 10 are results of FACS analyses showing hBAFF-R mAbs recognized non-Hodgkin lymphoma cell lines in vitro. […] The traces from top to bottom as shown in the figures correlate with the variables (e.g., antibody type or cell type) used from top to bottom shown next to the figures.

[7] = tested on: BAFF-R-expressing L cells and JeKo-1; assay: ADCC chromium-51 release assay with NK cells; format: cell-based; conditions: NK cells E:T 20:1; controls parental L cells and U266
Protocol: Antibody-induced cytotoxicities measured by chromium-51 release after incubation with C55, C90, or rituximab and effectors (NK cells or complement containing serum). NK effector cell to target ratio (E:T) of 20:1. […] Data are shown as the mean±s.d. of triplicate samples. *P<0.05 compared with NK cells by two-tailed Student's t-test.
FIG. 12 is a graph showing chimeric antibodies induced ADCC against BAFF-R expressing L cells. BAFF-R-expressing D2C L cells (targets) were labeled with chromium-51 followed by incubation overnight with chimeric mAb+NK cells (effector to target ratio, 20:1). Culture supernatant was analyzed for released chromium.
as §4

[8] = tested on: JeKo-1 (MCL); assay: In vivo JeKo-1 MCL tumor model, antibody treatment; parameters: species or system NSG mice; conditions: 200 μg antibody + NK-92-176V cells + IL-2 IV, vs PBS or NK cells alone
Text: as §3, §2

[9] = tested on: Mino cells; assay: Internalization of antibody on Mino cells; format: cell-based, human; conditions: 37° C. for 1 hour
Protocol: Mino cells were incubated with mAb C90 (0.05 μg/10^6 cells) at 4° C. for 20 minutes followed by incubation at 37° C. for 1 hour. Flow cytometry analysis was performed with anti-mouse IgG-APC. Cells were gated for surface localized antibodies (OUT) and loss of cell surface staining (IN).

B1: C55: chimeric mAb from clone 55 containing human IgG1 constant regions (antibody, V domains shown)
VH: QVTLKESGPGILKPSQTLSLTCSFSGFSLSTSGMGVGWIRQPSGKGLEWLAHIWWDDDKYYNSSLKSHLTISKDTSRNQVFLKITSVDTADTATYYCARSFGYGLDYWGQGTTLTVSS
VL: DIQMTQTTSSLSASLGDRVTISCSASQDISNYLNWYQQKPDGTVKLLIYYTSSLHSGVPSRFSGSGSGTDYSLTISSLEPEDIATYYCHQFSELPWTFGGGTKLEIK
antitumor effects [1]: significant effects | tumor free and long-term overall survival ([2]; 80-day): significant antitumor effects | tumor burden by bioluminescent imaging ([2]; Day 20): no visible tumors | tumor growth (bioluminescence) [3]: markedly retarded tumor growth | sensitivity to antibody-mediated cytotoxicity [4]: retained sensitivity | killing by ADCC [5]: sensitive to killing by ADCC | direct binding to NHL lines [6]: exhibited direct binding | antibody-dependent cell-mediated cytotoxicity (ADCC) [7]: elicited antibody-dependent cell-mediated cytotoxicity (ADCC) specifically against BAFF-R-expressing L cells and JeKo-1 | tumor growth (bioluminescence) [8]: significant retardation of tumor growth | internalization upon binding BAFF-R [9]: limited internalization
